Experimental findings from the supplement of paper PMC12042874 are described below.

± gives the uncertainty stated by the source.

The nature of the data set: amyloid nucleation score (Sup35N fusion, yeast selection) (log enrichment); library NNK3; higher = more nucleation; inactive = no reads after selection. An outline of the steps:
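Peptides of 20 random codons, each fused to Sup35N, were expressed in psi-negative yeast. Cells were induced with 100 μM copper sulfate for 24 hours and grown 7 days at 30°C on medium lacking adenine and uracil, and plasmid inserts before and after selection were Illumina-sequenced. Nucleation scores are DiMSum log enrichments of output over input reads, centred on the mode score of non-aggregating sequences, and sequences under 100 input reads were excluded.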

VMYHGMITLLVMLKTEQRKK: the amyloid nucleation score result is “inactive”.

GFWLGVMVTHTSTTYSAFTP came in with an amyloid nucleation score of 0.059 ± 0.29.

HITCVMSIKTRGLRMTERGS showed an amyloid nucleation score of 1.51 ± 0.096.

On to GTNDDESRRRRREWD, for which the amyloid nucleation score result is “inactive”.

As for HNSRN, the amyloid nucleation score is 0.186 ± 0.21.

For NLHTTEIKFSPLLWKISSTW, the amyloid nucleation score came to 0.313 ± 0.34.

As for SLYRKGRHFGGCSCSIVRFR, the amyloid nucleation score is 0.319 ± 0.78.

Turning to VGSPWSYKG, the amyloid nucleation score result was “inactive”.

In the case of LNRVINYLIKLYFAGWVSHD, the amyloid nucleation score entry is “inactive”.

On to NNDYADLRWGKSVGKASGWG, for which the amyloid nucleation score entry is “inactive”.

Take IDARRFQGFNISSYMN: the amyloid nucleation score stood at 0.372 ± 0.28.

As to VSFEFEIRESSGISCM, the amyloid nucleation score result was “inactive”.

Consider GFTRFFYLSRLMVGNMI, for which the amyloid nucleation score result was “inactive”.

Regarding SCMKDMWFVRVMIGLEKKNS, the amyloid nucleation score entry was “inactive”.

FYSCGNDAASMLFRLTSGGI: the amyloid nucleation score entry was “inactive”.

With LCVFWCGIPDRVFCNNGWMV, the amyloid nucleation score entry is “inactive”.

For the substance IWWVSK, the amyloid nucleation score result is “inactive”.

As for VDRDSWSVPFCALQKHRMQK, the amyloid nucleation score entry is “inactive”.

As for NSVQAWPMIELEQPLKSLVQ, the amyloid nucleation score entry is “inactive”.

For the substance SYSDRGCVGMNVLSVFEGWD, the amyloid nucleation score entry was “inactive”.

For VLASSKGICPMPSTSEFSFH, the amyloid nucleation score result is “inactive”.

As for IKVSECMSAYIVVFWYRMVV, the amyloid nucleation score entry is “inactive”.

For the substance RPVAFPIR, the amyloid nucleation score result is “inactive”.

For the substance LVWDKVSVVWNSKEGVNVRI, the amyloid nucleation score was found to be 0.256 ± 0.22.

In the case of FKPTRSHQGSFSSVTMFLVG, the amyloid nucleation score was determined as 0.261 ± 0.29.

On to WLHSGYGSNLPKATMRYCPN, for which the amyloid nucleation score result is “inactive”.

Regarding GWGPGARGGLEDRGDCVCFL, the amyloid nucleation score result was “inactive”.

As for VNEERGNYVWSCIMRYHLWD, the amyloid nucleation score result is “inactive”.

FAAARSYFKLFHIYCDDVTG: the amyloid nucleation score stood at 1.96 ± 0.071.

For the substance TYMPAVIIYRVLQAMTAAHH, the amyloid nucleation score result was “inactive”.

As to FFSSDDMWRYWMFSYSDNSI, the amyloid nucleation score result was “inactive”.

Turning to MRYFFLTRNLGLRAEPVC, the amyloid nucleation score entry is “inactive”.

TNTFYDHTNFMIVGLVPVRY: the amyloid nucleation score entry is “inactive”.

Turning to TLIRRVYVRRFYTGIEVGST, the amyloid nucleation score result was “inactive”.

Consider VADRVSSK, for which the amyloid nucleation score result is “inactive”.

Regarding LLAGYPLWKPKTCQYMKPWL, the amyloid nucleation score came out at 0.125 ± 0.24.

As for PDLDYFMIHA, the amyloid nucleation score result is “inactive”.

The substance VRLWFSGRTFSVKVVTHAPC came in with an amyloid nucleation score of 1.41 ± 0.098.

For the substance FMSSSPDSYCEKGKRQ, the amyloid nucleation score entry was “inactive”.

Regarding GLDGTGHKYDGQFARRWNLR, the amyloid nucleation score result is “inactive”.

Turning to ISNGVNPGVFDAVSWLDWAV, the amyloid nucleation score result is “inactive”.

For the substance GCECGISHLVLGAKVVPSMI, the amyloid nucleation score result is “inactive”.

As for YDSYTGRHNKLILRM, the amyloid nucleation score result was “inactive”.

Consider NKAYCWTLYLGMINDCIRFY, for which the amyloid nucleation score entry was “inactive”.

In the case of TPFTFGCHRLLQHKYCNSDV, the amyloid nucleation score entry is “inactive”.

For the substance IMCRLMSKVYTMPQYEILSF, the amyloid nucleation score entry was “inactive”.

As for EMRKAIRRL, the amyloid nucleation score result was “inactive”.

Consider TLGIWRDYSYKTILRRWDDR, for which the amyloid nucleation score result was “inactive”.

YFDSWTSMSAYYMGSFHW: the amyloid nucleation score entry is “inactive”.

As to FFREYTSSRQMNICYLSFHG, the amyloid nucleation score result was “inactive”.

As to TDVDNGLYRIDNLMARAKVY, the amyloid nucleation score result was “inactive”.

As to SLYMTVGESVPSMSASMYFG, the amyloid nucleation score entry is “inactive”.

As to FCCINKLDGLGVWETYCSYS, the amyloid nucleation score result is “inactive”.

For the substance NPDLVFWFKYLWYDGSCQ, the amyloid nucleation score entry is “inactive”.

With RWNVHCYAMLFDVGLVDARL, the amyloid nucleation score entry is “inactive”.

Regarding FVSEFMTSSTYLVPTVHITV, the amyloid nucleation score entry is “inactive”.

Substance CLLRSSCGWMCLRTGTHCVV came in with an amyloid nucleation score of 0.729 ± 0.25.

For LTSVMIFVLVRIELPNQTLS, the amyloid nucleation score result is “inactive”.

For SMTHRPTAVHSDVHGQCVKW, the amyloid nucleation score result is “inactive”.

For FQCMFYFIFSRCQHLVYCHF, the amyloid nucleation score result was “inactive”.

On to MINSHDL, for which the amyloid nucleation score entry is “inactive”.

For the substance FNWFCLFLWMRNRSKPFWTM, the amyloid nucleation score result is “inactive”.

Consider FVSPNLIVMVWVHWRSEINR, for which the amyloid nucleation score result is “inactive”.

Substance HFSLGLVMYLCSLGNVRP yielded an amyloid nucleation score of 1.47 ± 0.11.

Substance FLSCNTCWGMTNANLSDNFN yielded an amyloid nucleation score of 2.05 ± 0.071.

KPISRRGWPRPKAGRNEPPR: the amyloid nucleation score entry was “inactive”.

CLFCSALEL gave an amyloid nucleation score of 1.99 ± 0.072.

In the case of RWNIS, the amyloid nucleation score worked out at 0.28 ± 0.22.

As to MVLYGAHECRDDKSVSLTRC, the amyloid nucleation score entry is “inactive”.

As for LFSHESLVTTGLVAVFSLAK, the amyloid nucleation score result is “inactive”.

With YHTAWWAEMCIDIKNGEL, the amyloid nucleation score entry was “inactive”.

In the case of GGKLGTLCSNSRYGSVHMGV, the amyloid nucleation score entry was “inactive”.

For LYFFYMPQTWVVSRCCGYNP, the amyloid nucleation score was 3.06 ± 0.079.

Consider RFGITLVFEYPAVEFVDTTI, for which the amyloid nucleation score entry is “inactive”.

Turning to DVMTKDQ, the amyloid nucleation score entry is “inactive”.

FIGFSAWWNGMDNVRVLASS gave an amyloid nucleation score of -0.269 ± 0.73.

For the substance FIWVFCD, the amyloid nucleation score entry is “inactive”.

For TETSWDGVVLSLISCRFQSY, the amyloid nucleation score was determined as 3.02 ± 0.079.

Regarding SREFSGCNNV, the amyloid nucleation score result is “inactive”.

Turning to SFLGLMSMEELITS, the amyloid nucleation score result was “inactive”.

For NYHRDSDVLTIFVISCPFLR, the amyloid nucleation score result is “inactive”.

As to WSCESNDVHSCWWWLGGFNT, the amyloid nucleation score entry is “inactive”.

Regarding SMIGQSVEFYLISCYRGLCT, the amyloid nucleation score entry is “inactive”.

Regarding ARICIAACIRAICDGFSGRR, the amyloid nucleation score entry is “inactive”.

With STQCFDELMYA, the amyloid nucleation score entry was “inactive”.

ILGEWLFCSIIFWGVWDYAG: the amyloid nucleation score result is “inactive”.

Turning to IYVHNYFISVVIMVYFTMLP, the amyloid nucleation score result was “inactive”.

For the substance LSASGYQSCSNVMMSTHVSN, the amyloid nucleation score result was “inactive”.

In the case of YMGCIYIPYVKFYFKM, the amyloid nucleation score was 1.26 ± 0.081.

For MISWLNQKYHVLNQNFIYG, the amyloid nucleation score result was “inactive”.

As to SEVGMVSLRLFWLWWVTKPK, the amyloid nucleation score result was “inactive”.

On to FNVRWGWLGDLIYGGFLHVG, for which the amyloid nucleation score result is “inactive”.

For CSYWTGYCCQIVGLKSFGLV, the amyloid nucleation score was determined as 2.4 ± 0.083.

Regarding EVYLETCRGILFCALDTIFG, the amyloid nucleation score was -0.264 ± 1.

With FYLGLAYVLSWVGFCVIGVS, the amyloid nucleation score result is “inactive”.
